Test results: publication PMC13397619

B1: NLV3 TCR beta chain (CDR3β only) (parent)
chain: ASSPTGGSPSPLH

Variants of: B1
Assay: T-Switch: Jurkat TCRβ−/− cells expressing a CDR3 saturation-mutagenesis library, stained with two peptide-HLA-A*02:01 tetramers (original and novel peptide) plus anti-CD3, FACS-sorted into four gates, gDNA sequenced
Conditions: tetramers 1 µg/mL, 30 min on ice, SP, DP and SW gates expanded about 10 days between rounds ('two to three rounds of selection' in the Methods), unresolved parent, parent is a CDR3 fragment, scale: fold enrichment, numbering: sequential-on-construct, sequence starts at 1
[1] = with both tetramers (double-negative gate, binds neither): HLA-A*02:01 with … and with …, gate DN: OPPOSITE: higher = more of the variant in the gate that binds neither peptide = LESS binding (or no expression; inferred). Fold enrichment of the CDR3 variant in one FACS gate of a two-tetram
[2] = with both tetramers (double-positive gate): HLA-A*02:01 with … and with …, gate DP: higher = more of the variant in the gate that binds both peptides. Fold enrichment of the CDR3 variant in one FACS gate of a two-tetramer stain. SP/DP/SW gates were expanded and re-sorted bef

Variant	enrichment [1]	enrichment [2]
[…] (CDR3 as printed); S3K derived by comparing it with the table's wild-type CDR3 ASSPTGGSPSPLH	1.11	0
[…] (CDR3 as printed); S8W derived by comparing it with the table's wild-type CDR3 ASSPTGGSPSPLH	0.85	0
[…] (CDR3 as printed); T5D derived by comparing it with the table's wild-type CDR3 ASSPTGGSPSPLH	1.06	0
[…] (CDR3 as printed); S10E derived by comparing it with the table's wild-type CDR3 ASSPTGGSPSPLH	1.41	0
[…] (CDR3 as printed); P11S derived by comparing it with the table's wild-type CDR3 ASSPTGGSPSPLH	1.52	0
[…] (CDR3 as printed); S8L derived by comparing it with the table's wild-type CDR3 ASSPTGGSPSPLH	1.58	0
[…] (CDR3 as printed); S8P derived by comparing it with the table's wild-type CDR3 ASSPTGGSPSPLH	1.03	0
[…] (CDR3 as printed); S3W derived by comparing it with the table's wild-type CDR3 ASSPTGGSPSPLH	0.749	0
[…] (CDR3 as printed); S10K derived by comparing it with the table's wild-type CDR3 ASSPTGGSPSPLH	1.05	0
[…] (CDR3 as printed); P11H derived by comparing it with the table's wild-type CDR3 ASSPTGGSPSPLH	1.37	0
[…] (CDR3 as printed); T5F derived by comparing it with the table's wild-type CDR3 ASSPTGGSPSPLH	0.464	0
[…] (CDR3 as printed); S2R derived by comparing it with the table's wild-type CDR3 ASSPTGGSPSPLH	0.703	0
[…] (CDR3 as printed); S3N derived by comparing it with the table's wild-type CDR3 ASSPTGGSPSPLH	0.483	0
[…] (CDR3 as printed); S10D derived by comparing it with the table's wild-type CDR3 ASSPTGGSPSPLH	0.754	0
[…] (CDR3 as printed); S2F derived by comparing it with the table's wild-type CDR3 ASSPTGGSPSPLH	0.437	0
[…] (CDR3 as printed); S10Q derived by comparing it with the table's wild-type CDR3 ASSPTGGSPSPLH	0.571	0
[…] (CDR3 as printed); P11D derived by comparing it with the table's wild-type CDR3 ASSPTGGSPSPLH	0.46	0
[…] (CDR3 as printed); S10M derived by comparing it with the table's wild-type CDR3 ASSPTGGSPSPLH	0.53	0
[…] (CDR3 as printed); T5C derived by comparing it with the table's wild-type CDR3 ASSPTGGSPSPLH	1.08	0
[…] (CDR3 as printed); S3T derived by comparing it with the table's wild-type CDR3 ASSPTGGSPSPLH	0.779	0

Variant	enrichment [1]	enrichment [2]
[…] (CDR3 as printed); S10L derived by comparing it with the table's wild-type CDR3 ASSPTGGSPSPLH	0.468	0
[…] (CDR3 as printed); P9W derived by comparing it with the table's wild-type CDR3 ASSPTGGSPSPLH	1.05	0
[…] (CDR3 as printed); S3R derived by comparing it with the table's wild-type CDR3 ASSPTGGSPSPLH	0.964	0
[…] (CDR3 as printed); T5G derived by comparing it with the table's wild-type CDR3 ASSPTGGSPSPLH	0.828	0
[…] (CDR3 as printed); S3L derived by comparing it with the table's wild-type CDR3 ASSPTGGSPSPLH	0.942	0
[…] (CDR3 as printed); S8G derived by comparing it with the table's wild-type CDR3 ASSPTGGSPSPLH	0.725	0
[…] (CDR3 as printed); S2E derived by comparing it with the table's wild-type CDR3 ASSPTGGSPSPLH	0.993	0
[…] (CDR3 as printed); S8F derived by comparing it with the table's wild-type CDR3 ASSPTGGSPSPLH	0.97	0
[…] (CDR3 as printed); T5A derived by comparing it with the table's wild-type CDR3 ASSPTGGSPSPLH	0.817	0
[…] (CDR3 as printed); T5I derived by comparing it with the table's wild-type CDR3 ASSPTGGSPSPLH	0.355	0
[…] (CDR3 as printed); S2H derived by comparing it with the table's wild-type CDR3 ASSPTGGSPSPLH	0.777	0
[…] (CDR3 as printed); S2T derived by comparing it with the table's wild-type CDR3 ASSPTGGSPSPLH	0.755	0
[…] (CDR3 as printed); S2M derived by comparing it with the table's wild-type CDR3 ASSPTGGSPSPLH	0.757	0
[…] (CDR3 as printed); S8M derived by comparing it with the table's wild-type CDR3 ASSPTGGSPSPLH	1.29	0
[…] (CDR3 as printed); S10N derived by comparing it with the table's wild-type CDR3 ASSPTGGSPSPLH	1.13	0
[…] (CDR3 as printed); S2K derived by comparing it with the table's wild-type CDR3 ASSPTGGSPSPLH	0.571	0
[…] (CDR3 as printed); S10T derived by comparing it with the table's wild-type CDR3 ASSPTGGSPSPLH	1.08	0
[…] (CDR3 as printed); P9S derived by comparing it with the table's wild-type CDR3 ASSPTGGSPSPLH	0.771	0
[…] (CDR3 as printed); S8D derived by comparing it with the table's wild-type CDR3 ASSPTGGSPSPLH	0.969	0
[…] (CDR3 as printed); P11I derived by comparing it with the table's wild-type CDR3 ASSPTGGSPSPLH	1.19	0

Variant	enrichment [1]	enrichment [2]
[…] (CDR3 as printed); S3G derived by comparing it with the table's wild-type CDR3 ASSPTGGSPSPLH	0.543	0
[…] (CDR3 as printed); S2C derived by comparing it with the table's wild-type CDR3 ASSPTGGSPSPLH	0.867	0
[…] (CDR3 as printed); S3M derived by comparing it with the table's wild-type CDR3 ASSPTGGSPSPLH	0.806	0
[…] (CDR3 as printed); S10C derived by comparing it with the table's wild-type CDR3 ASSPTGGSPSPLH	0.577	0
[…] (CDR3 as printed); P11M derived by comparing it with the table's wild-type CDR3 ASSPTGGSPSPLH	0.318	0
[…] (CDR3 as printed); S3F derived by comparing it with the table's wild-type CDR3 ASSPTGGSPSPLH	0.989	0
[…] (CDR3 as printed); P11Y derived by comparing it with the table's wild-type CDR3 ASSPTGGSPSPLH	0.787	0
[…] (CDR3 as printed); S2P derived by comparing it with the table's wild-type CDR3 ASSPTGGSPSPLH	0.795	0
[…] (CDR3 as printed); S10R derived by comparing it with the table's wild-type CDR3 ASSPTGGSPSPLH	1.17	0
[…] (CDR3 as printed); P11Q derived by comparing it with the table's wild-type CDR3 ASSPTGGSPSPLH	0.777	0
[…] (CDR3 as printed); P9K derived by comparing it with the table's wild-type CDR3 ASSPTGGSPSPLH	0.805	0
[…] (CDR3 as printed); S2N derived by comparing it with the table's wild-type CDR3 ASSPTGGSPSPLH	0.879	0
[…] (CDR3 as printed); P11A derived by comparing it with the table's wild-type CDR3 ASSPTGGSPSPLH	0.423	0
[…] (CDR3 as printed); P11G derived by comparing it with the table's wild-type CDR3 ASSPTGGSPSPLH	1.17	0
[…] (CDR3 as printed); P9Y derived by comparing it with the table's wild-type CDR3 ASSPTGGSPSPLH	0.562	0
[…] (CDR3 as printed); S10V derived by comparing it with the table's wild-type CDR3 ASSPTGGSPSPLH	0.96	0
[…] (CDR3 as printed); S8V derived by comparing it with the table's wild-type CDR3 ASSPTGGSPSPLH	0.756	0
[…] (CDR3 as printed); T5M derived by comparing it with the table's wild-type CDR3 ASSPTGGSPSPLH	0.479	0
